Experimental data published in patent publication US20140109263A1.

Assays:
[1] = biological target: receptor proteins in midgut brush border membrane vesicles (BBMV's) from fall armyworm (FAW; Spodoptera frugiperda) larvae (Spodoptera frugiperda); assay: heterologous competition: 1,000 nM unlabeled Cry1Da against 125I Cry1Ea on FAW BBMV's, FIG. 4
[2] = biological target: receptor proteins in midgut brush border membrane vesicles (BBMV's) from fall armyworm (FAW; Spodoptera frugiperda) larvae (Spodoptera frugiperda); assay: homologous competition: unlabeled Cry1Ea against 0.5 nM 125I Cry1Ea on FAW BBMV's (150 ug/ml), FIG. 1
[3] = biological target: receptor proteins in midgut brush border membrane vesicles (BBMV's) from fall armyworm (FAW; Spodoptera frugiperda) larvae (Spodoptera frugiperda); assay: homologous competition: unlabeled Cry1Ea against 125I Cry1Ea on FAW BBMV's, FIG. 3

Substance | percent displacement of ^125I Cry1Ea [1] [%] | IC50 [2] [nM] | IC50 [3] [nM]
Cry1Da protein, trypsinized (protease-processed Cry1Da) (from UniProt P19415 28-603) | 40 |  | 
Cry1Ea protein, trypsin-cleaved activated form (protease-processed Cry1Ea) (from UniProt Q57458 1-612) |  | 1 | 1
